Reference: ChEMBL document CHEMBL4680222, “Sensitive fluorogenic substrates for sirtuin deacylase inhibitor discovery” (Eur J Med Chem, 2020)

Experiments:
[1] = compound: CC(=O)NCCCC[C@H](NC(=O)[C@H](CC(C)C)NC(=O)[C@H](CCCCN)NC(=O)[C@H](Cc1ccc(O)cc1)NC(C)=O)C(=O)Nc1ccc2c(C)cc(=O)oc2c1; test: (§1) Substrate activity at human N-terminal His-tagged SIRT1 (183 to 664 residues) expressed in Escherichia coli assessed as Km measured after 1 hr in presence of NAD+ and trypsin by Michaelis-Menten kinetic model based fluorescence assay
[2] = compound: CC[C@H](C)[C@H](NC(=O)[C@H](CC(C)C)NC(=O)[C@H](CCCNC(=N)N)NC(C)=O)C(=O)N[C@@H](CCCCNC(C)=O)C(=O)Nc1ccc2c(C)cc(=O)oc2c1; test: as §1
[3] = compound: CC(=O)NCCCC[C@H](NC(=O)[C@H](CC(C)C)NC(=O)[C@H](CCCCN)NC(=O)[C@H](Cc1ccc(O)cc1)NC(C)=O)C(=O)Nc1ccc2c(C)cc(=O)oc2c1; test: (§2) Substrate activity at human N-terminal His-tagged SIRT1 (183 to 664 residues) expressed in Escherichia coli assessed as ratio of Kcat to Km measured after 1 hr in presence of NAD+ and trypsin by Michaelis-Menten kinetic model based fluorescence assay
[4] = compound: CC[C@H](C)[C@H](NC(=O)[C@H](CC(C)C)NC(=O)[C@H](CCCNC(=N)N)NC(C)=O)C(=O)N[C@@H](CCCCNC(C)=O)C(=O)Nc1ccc2c(C)cc(=O)oc2c1; test: as §2
[5] = compound: CC(=O)NCCCC[C@H](NC(=O)[C@H](CC(C)C)NC(=O)[C@H](CCCCN)NC(=O)[C@H](Cc1ccc(O)cc1)NC(C)=O)C(=O)Nc1ccc2c(C)cc(=O)oc2c1; test: (§3) Substrate activity at human N-terminal His-tagged SIRT1 (183 to 664 residues) expressed in Escherichia coli assessed as Kcat measured after 1 hr in presence of NAD+ and trypsin by Michaelis-Menten kinetic model based fluorescence assay
[6] = compound: CC[C@H](C)[C@H](NC(=O)[C@H](CC(C)C)NC(=O)[C@H](CCCNC(=N)N)NC(C)=O)C(=O)N[C@@H](CCCCNC(C)=O)C(=O)Nc1ccc2c(C)cc(=O)oc2c1; test: as §3
[7] = compound: CC(=O)NCCCC[C@H](NC(=O)[C@H](CC(C)C)NC(=O)[C@H](CCCCN)NC(=O)[C@H](Cc1ccc(O)cc1)NC(C)=O)C(=O)Nc1ccc2c(C)cc(=O)oc2c1; test: (§4) Substrate activity at human N-terminal His-tagged SIRT1 (183 to 664 residues) expressed in Escherichia coli assessed as Vmax measured after 1 hr in presence of NAD+ and trypsin by Michaelis-Menten kinetic model based fluorescence assay
[8] = compound: CC[C@H](C)[C@H](NC(=O)[C@H](CC(C)C)NC(=O)[C@H](CCCNC(=N)N)NC(C)=O)C(=O)N[C@@H](CCCCNC(C)=O)C(=O)Nc1ccc2c(C)cc(=O)oc2c1; test: as §4
[9] = compound: CC(=O)NCCCC[C@H](NC(=O)[C@H](CC(C)C)NC(=O)[C@H](CCCCN)NC(=O)[C@H](Cc1ccc(O)cc1)NC(C)=O)C(=O)Nc1ccc2c(C)cc(=O)oc2c1; test: (§5) Substrate activity at human N-terminal His-tagged SIRT3 (122 to 391 residues) expressed in Escherichia coli assessed as Kcat measured after 1 hr in presence of NAD+ and trypsin by Michaelis-Menten kinetic model based fluorescence assay
[10] = compound: CC[C@H](C)[C@H](NC(=O)[C@H](CC(C)C)NC(=O)[C@H](CCCNC(=N)N)NC(C)=O)C(=O)N[C@@H](CCCCNC(C)=O)C(=O)Nc1ccc2c(C)cc(=O)oc2c1; test: as §5
[11] = compound: CC(=O)NCCCC[C@H](NC(=O)[C@H](CC(C)C)NC(=O)[C@H](CCCCN)NC(=O)[C@H](Cc1ccc(O)cc1)NC(C)=O)C(=O)Nc1ccc2c(C)cc(=O)oc2c1; test: (§6) Substrate activity at human N-terminal His-tagged SIRT3 (122 to 391 residues) expressed in Escherichia coli assessed as Vmax measured after 1 hr in presence of NAD+ and trypsin by Michaelis-Menten kinetic model based fluorescence assay
[12] = compound: CC[C@H](C)[C@H](NC(=O)[C@H](CC(C)C)NC(=O)[C@H](CCCNC(=N)N)NC(C)=O)C(=O)N[C@@H](CCCCNC(C)=O)C(=O)Nc1ccc2c(C)cc(=O)oc2c1; test: as §6
[13] = compound: CC(=O)NCCCC[C@H](NC(=O)[C@H](CC(C)C)NC(=O)[C@H](CCCCN)NC(=O)[C@H](Cc1ccc(O)cc1)NC(C)=O)C(=O)Nc1ccc2c(C)cc(=O)oc2c1; test: (§7) Substrate activity at human N-terminal His-tagged SIRT3 (122 to 391 residues) expressed in Escherichia coli assessed as Km measured after 1 hr in presence of NAD+ and trypsin by Michaelis-Menten kinetic model based fluorescence assay
[14] = compound: CC[C@H](C)[C@H](NC(=O)[C@H](CC(C)C)NC(=O)[C@H](CCCNC(=N)N)NC(C)=O)C(=O)N[C@@H](CCCCNC(C)=O)C(=O)Nc1ccc2c(C)cc(=O)oc2c1; test: as §7
[15] = compound: CC(=O)NCCCC[C@H](NC(=O)[C@H](CC(C)C)NC(=O)[C@H](CCCCN)NC(=O)[C@H](Cc1ccc(O)cc1)NC(C)=O)C(=O)Nc1ccc2c(C)cc(=O)oc2c1; test: (§8) Substrate activity at human N-terminal His-tagged SIRT3 (122 to 391 residues) expressed in Escherichia coli assessed as ratio of Kcat to Km measured after 1 hr in presence of NAD+ and trypsin by Michaelis-Menten kinetic model based fluorescence assay
[16] = compound: CC[C@H](C)[C@H](NC(=O)[C@H](CC(C)C)NC(=O)[C@H](CCCNC(=N)N)NC(C)=O)C(=O)N[C@@H](CCCCNC(C)=O)C(=O)Nc1ccc2c(C)cc(=O)oc2c1; test: as §8

Protein	Km [1] [µM]	Km [2] [µM]	kcat/Km [3] [M⁻¹ s⁻¹]	kcat/Km [4] [M⁻¹ s⁻¹]	kcat [5]	kcat [6]	Vmax [7] [nM/min]	Vmax [8] [nM/min]	kcat [9]	kcat [10]	Vmax [11] [nM/min]	Vmax [12] [nM/min]	Km [13] [µM]	Km [14] [µM]	kcat/Km [15] [M⁻¹ s⁻¹]	kcat/Km [16] [M⁻¹ s⁻¹]
NAD-dependent protein deacetylase sirtuin-1 (Homo sapiens), Q96EB6 (protein) MADEAALALQPGGSPSAAGADREAASSPAGEPLRKRPRRDGPGLERSPGEPGGAAPEREVPAAARGCPGAAAAALWREAEAEAAAAGGEQEAQATAAAGEGDNGPGLQGPSREPPLADNLYDEDDDDEGEEEEEAAAAAIGYRDNLLFGDEIITNGFHSCESDEEDRASHASSSDWTPRPRIGPYTFVQQHLMIGTDPRTILKDLLPETIPPPELDDMTLWQIVINILSEPPKRKKRKDINTIEDAVKLLQECKKIIVLTGAGVSVSCGIPDFRSRDGIYARLAVDFPDLPDPQAMFDIEYFRKDPRPFFKFAKEIYPGQFQPSLCHKFIALSDKEGKLLRNYTQNIDTLEQVAGIQRIIQCHGSFATASCLICKYKVDCEAVRGDIFNQVVPRCPRCPADEPLAIMKPEIVFFGENLPEQFHRAMKYDKDEVDLLIVIGSSLKVRPVALIPSSIPHEVPQILINREPLPHLHFDVELLGDCDVIINELCHRLGGEYAKLCCNPVKLSEITEKPPRTQKELAYLSELPPTPLHVSEDSSSPERTSPPDSSVIVTLLDQAAKSNDDLDVSESKGCMEEKPQEVQTSRNVESIAEQMENPDLKNVGSSTGEKNERTSVAGTVRKCWPNRVAKEQISRRLDGNQYLFLPPNRYIFHGAEVYSDSEDDVLSSSSCGSNSDSGTCQSPSLEEPMEDESEIEEFYNGLEDEPDVPERAGGAGFGTDGDDQEAINEAISVKQEVTDMNYPSNKS	76.5	56.6	226	669	17.3 10^-3/s	37.9 10^-3/s	208	454								
NAD-dependent protein deacetylase sirtuin-3, mitochondrial (Homo sapiens), Q9NTG7 (protein) MAFWGWRAAAALRLWGRVVERVEAGGGVGPFQACGCRLVLGGRDDVSAGLRGSHGARGEPLDPARPLQRPPRPEVPRAFRRQPRAAAPSFFFSSIKGGRRSISFSVGASSVVGSGGSSDKGKLSLQDVAELIRARACQRVVVMVGAGISTPSGIPDFRSPGSGLYSNLQQYDLPYPEAIFELPFFFHNPKPFFTLAKELYPGNYKPNVTHYFLRLLHDKGLLLRLYTQNIDGLERVSGIPASKLVEAHGTFASATCTVCQRPFPGEDIRADVMADRVPRCPVCTGVVKPDIVFFGEPLPQRFLLHVVDFPMADLLLILGTSLEVEPFASLTEAVRSSVPRLLINRDLVGPLAWHPRSRDVAQLGDVVHGVESLVELLGWTEEMRDLVQRETGKLDGPDK									2.44 10^-3/s	5.58 10^-3/s	14.6	33.5	63.4	6.52	26.1	850
